One block for each binder: values may come before it.
Key:
[1] = biological target: T1, human GFRα3 expressed with a C-terminal myc-myc-hexahistidine tag (human, UniProt O60609 32-374, biotinylated (sites not given) in ELISA format 2 and in the Octet cross-competition; not in SPR); experiment: Octet cross-competition; biotin-hGFRα3-mmH pre-saturated with first antibody H4H2295S
T1 construct: also called hGFRα3-mmh; hGFRα3-mmH
Experimental: A cross-competition assay was conducted to assess the ability of select antibodies to compete with one another for binding to human GFRα3 using an Octet RED384 biosensor (Fortebio Inc.). The entire experiment was performed at 25° C. with the flow rate of 1000 rpm in Octet HBST buffer (0.01 M HEPES pH7.4, 0.15M NaCl, 3 mM EDTA, 0.05% v/v Surfactant P20, 0.1 mg/mL BSA). To assess whether 2 antibodies were able to compete with one another for binding to their respective epitopes on biotinylated recombinant human GFRα3 expressed with a C-terminal myc-myc-hexahistidine tag (biotin-hGFRα3-mmH; SEQ ID:370), around ˜1.2 nm of biotin-hGFRα3-mmH was first captured onto streptavidin-coated Octet sensor tips (Fortebio Inc, #18-5019) by submerging the tips for 1 minute into a 10 μg/mL solution of biotin-hGFRα3-mmH. The antigen coated sensor tips were then placed into wells containing 25 μg/mL solution of a first anti-GFRα3 monoclonal antibody for 4 minutes to saturate the biotin-hGFRα3-mmH surface. The sensor tips were then subsequently dipped into wells containing 25 μ/mL solution of a second anti-GFRα3 monoclonal antibody. The sensor tips were washed in Octet HBST buffer in between every step of the experiment. The real-time binding response was monitored during the course of the experiment and the binding response at the end of every step was recorded as shown in FIG. 9. The response of mAb-2 binding to biotin-hGFRα3-mmH pre-complexed with the first antibody was compared and competitive/non-competitive behavior of different anti-GFRα3 monoclonal antibodies was determined.

[2] = biological target: T1, human GFRα3 expressed with a C-terminal …; experiment: SPR, Ab captured, 37C
Experimental: (§1) Antibodies were tested for binding to human GFRα3 expressed with either a C-terminal myc-myc-hexahistidine tag (hGFRα3-mmh; SEQ ID: 370, a C-terminal hFc tag (hGFRα3-hFc; SEQ ID:371), or a C-terminal mFc tag (hGFRα3-mFc; SEQ ID:372), as well as monkey GFRα3 expressed with a C-terminal myc-myc-hexahistidine tag (MfGFRα3-mmh; SEQ ID:373). Anti-GFRα3 antibodies were captured on either a goat anti-mouse IgG polyclonal antibody (GE Healthcare, #BR-1008-38) or a mouse anti-human IgG monoclonal antibody (GE Healthcare, #BR-1008-39) surface created through direct amine coupling to a Biacore CM5 sensor chip. Kinetic experiments were carried out using HBS-EP (10 mM HEPES, 150 mM NaCl, 3 mM EDTA, 0.05% Surfactant P20, at pH 7.4) or PBS buffer containing 0.05% v/v surfactant P20 as both the running buffer and the sample buffer. Binding to human GFRα3-mmh or monkey GFRα3-mmh was evaluated by injecting several concentrations ranging from 200 to 7.4 nM (3-fold dilutions) across the captured antibody surface. Binding to human GFRα3-mFc or human GFRα3-hFc was evaluated by injecting several concentrations ranging from 100 to 3.7 nM (3-fold dilutions) across the captured antibody surface. Antibody-antigen association was monitored for up to 4 minutes, while dissociation in buffer was monitored for up to 20 minutes. Kinetic association (kₐ) and dissociation (kd) rate constants were determined by processing and fitting the data to a 1:1 binding model using Scrubber 2.0c curve fitting software. Binding dissociation equilibrium constants (KD) and dissociative half-lives (t_{1/2}) were calculated from the kinetic rate constants as: KD (M)=kd/kₐ and t_{1/2} (min)=[ln 2/(60*kd)].

[3] = biological target: T2, human GFRα3 expressed with a C-terminal mFc tag (human); experiment: SPR, Ab captured, 37C
T2 construct: also called hGFRα3-mFc
T2 chain: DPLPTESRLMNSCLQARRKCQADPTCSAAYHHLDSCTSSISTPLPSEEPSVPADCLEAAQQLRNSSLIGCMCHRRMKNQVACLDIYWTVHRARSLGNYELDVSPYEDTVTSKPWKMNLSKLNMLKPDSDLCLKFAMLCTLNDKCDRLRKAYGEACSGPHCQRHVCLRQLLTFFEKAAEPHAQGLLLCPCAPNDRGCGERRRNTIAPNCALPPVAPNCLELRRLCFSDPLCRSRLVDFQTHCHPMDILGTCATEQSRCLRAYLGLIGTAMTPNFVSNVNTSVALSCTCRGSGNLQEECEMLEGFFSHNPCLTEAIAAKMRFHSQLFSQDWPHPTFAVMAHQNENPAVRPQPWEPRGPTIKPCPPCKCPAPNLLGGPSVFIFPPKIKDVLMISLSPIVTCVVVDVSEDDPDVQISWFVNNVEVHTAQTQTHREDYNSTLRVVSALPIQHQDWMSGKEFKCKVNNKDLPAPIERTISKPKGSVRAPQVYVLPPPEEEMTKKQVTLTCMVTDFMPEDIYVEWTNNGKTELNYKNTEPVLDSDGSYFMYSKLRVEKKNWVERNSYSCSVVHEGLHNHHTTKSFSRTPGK
Experimental: as §1

[4] = biological target: T3, monkey GFRα3 expressed with a C-terminal myc-myc-hexahistidine tag (monkey (Mf), UniProt O60609 32-374 (human entry), limits assumed); experiment: SPR, Ab captured, 37C
T3 construct: also called MfGFRα3-mmh; MfGFRα3-mmH
T3 chain: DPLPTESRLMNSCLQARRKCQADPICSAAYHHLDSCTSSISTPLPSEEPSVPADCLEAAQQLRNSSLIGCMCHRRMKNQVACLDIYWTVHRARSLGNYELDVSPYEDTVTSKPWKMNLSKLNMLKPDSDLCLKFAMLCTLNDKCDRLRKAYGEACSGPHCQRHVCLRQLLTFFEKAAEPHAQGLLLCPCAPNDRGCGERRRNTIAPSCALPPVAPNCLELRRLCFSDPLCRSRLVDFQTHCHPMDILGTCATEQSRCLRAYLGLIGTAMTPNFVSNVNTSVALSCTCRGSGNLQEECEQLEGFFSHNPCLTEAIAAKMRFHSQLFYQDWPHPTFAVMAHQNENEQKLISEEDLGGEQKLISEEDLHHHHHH
Experimental: as §1

B2: H4H2344S (antibody, human IgG4, V domains shown)
VH: EVQLVESGGGVVQPGRSLRLSCAASGFSFSDYVMHWVRQAPGKGLEWVASIWFDGSNEFYADSVKGRFTISRDNSKNTLFLQMNSLRAEDTAVYYCAKKGVLVATSAFDIWGQGTMVTVSS
VL: DIQMTQSPSSLSASVGDRVTITCRASQSINNYLNWYHQKPGKAPKLLIYAASSLQSGVPSRFSGSGSGTDYTLTISSLQPEDFGNYYCQQSYRTSMYTFGQGTKVEIK
notes: human IgG4 Fc (H4H)
Kd [3]: 0.0891 nM
koff [3]: 8.96e-05 s⁻¹
kon [3]: 1.01e+06 M⁻¹ s⁻¹
t1/2 [3]: 129 min
Kd [2]: 2.58 nM
koff [2]: 0.000724 s⁻¹
kon [2]: 280000 M⁻¹ s⁻¹
t1/2 [2]: 16 min
Kd [4]: 3.57 nM
koff [4]: 0.000575 s⁻¹
kon [4]: 161000 M⁻¹ s⁻¹
t1/2 [4]: 20 min

B7: H4H2341S (antibody, human IgG4, V domains shown)
VH: EVQLVESGAEVKKSGSSVKVSCKASGGTFSRYAISWVRQAPGQGLEWMGGIIPLFGTLNYAQKFQGRVTLTTDESTSTAYMELSSLRSEDTAVYYCAVFYYGSGSYRNWFDPWGQGTLVTVSS
VL: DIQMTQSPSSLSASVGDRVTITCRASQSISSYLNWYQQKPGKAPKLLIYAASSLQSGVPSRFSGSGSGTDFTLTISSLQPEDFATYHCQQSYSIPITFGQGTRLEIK
notes: human IgG4 Fc (H4H)
Kd [3]: 0.0789 nM
koff [3]: 7.58e-05 s⁻¹
kon [3]: 961000 M⁻¹ s⁻¹
t1/2 [3]: 152 min
Kd [2]: 2.98 nM
koff [2]: 0.000737 s⁻¹
kon [2]: 248000 M⁻¹ s⁻¹
t1/2 [2]: 16 min
Kd [4]: 3.53 nM
koff [4]: 0.000508 s⁻¹
kon [4]: 144000 M⁻¹ s⁻¹
t1/2 [4]: 23 min

B8: H4H2345S (antibody, human IgG4, V domains shown)
VH: EVQLVESGGGLVRPGRSLRLSCAASGFTFDNYAMHWVRQVPGKGLEWVSGITWNSVSLGYADSVKGRFTISRDNAQNSLYLQMNSLRTVDTALYYCAKDRWGGSYYFDFWGQGTLVTVSS
VL: DIVMTQSPSSLSASVGDRVTITCRASQGISNYLAWYQQKPGKVPKLLIYSASTLQSGVPSRFSGSGSGTDFTLTISNLQPEDFATFFCQKYNSAPTFGGGTKVEIK
notes: human IgG4 Fc (H4H)
Kd [3]: 0.106 nM
koff [3]: 7.44e-05 s⁻¹
kon [3]: 700000 M⁻¹ s⁻¹
t1/2 [3]: 155 min
Kd [2]: 47.3 nM
koff [2]: 0.0087 s⁻¹
kon [2]: 184000 M⁻¹ s⁻¹
t1/2 [2]: 1 min
Kd [4]: 26.3 nM
koff [4]: 0.00353 s⁻¹
kon [4]: 134000 M⁻¹ s⁻¹
t1/2 [4]: 3 min

B9: H4H2212N (antibody, human IgG4, V domains shown)
VH: EVQLLESGGGLVQPGGSLRLSCAASGFTFSSYAMSWVRQGPGKGLEWVSGISGSGGSTYNADSVKGRFTISRDNSKNTLYLQMNSLRAEDTAVYYCAKDSGTYWYYFDYWGQGILVTVSS
VL: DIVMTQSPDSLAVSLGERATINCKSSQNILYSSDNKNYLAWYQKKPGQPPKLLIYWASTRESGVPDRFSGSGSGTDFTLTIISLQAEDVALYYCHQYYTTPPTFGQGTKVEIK
notes: human IgG4 Fc (H4H)
binding response of second antibody (nm) [1]: 1.81 nm

Continued by falling Kd [2], values first:

Kd [3]: 0.0895 nM
koff [3]: 9.11e-05 s⁻¹
kon [3]: 1.02e+06 M⁻¹ s⁻¹
t1/2 [3]: 127 min
Kd [2]: 2.31 nM
koff [2]: 0.000649 s⁻¹
kon [2]: 281000 M⁻¹ s⁻¹
t1/2 [2]: 18 min
Kd [4]: 2.78 nM
koff [4]: 0.000435 s⁻¹
kon [4]: 157000 M⁻¹ s⁻¹
t1/2 [4]: 27 min
B5: H4H2354S (antibody, human IgG4, V domains shown)
VH: QVQLVESGGGVVQPGRSLRLSCAASGFSFSDYVMHWVRQAPGKGLEWVASIWFDGSNEFYADSVKGRFTISRDNSKNTLFLQMNSLRAEDTAVYYCAKKGVLVATSAFDIWGQGTMVTVSS
VL: DIQLTQSPSSLSASVGDRVTITCRASQSINNYLNWYHQKPGKAPKLLIYAASSLQSGVPSRFSGSGSGTDYTLTISSLQPEDFGNYYCQQSYRTSMYTFGQGTKVEIK
notes: human IgG4 Fc (H4H); also called H4H2354S-1

Kd [3]: 0.0781 nM
koff [3]: 0.000137 s⁻¹
kon [3]: 1.75e+06 M⁻¹ s⁻¹
t1/2 [3]: 84 min
Kd [2]: 1.41 nM
koff [2]: 0.000589 s⁻¹
kon [2]: 419000 M⁻¹ s⁻¹
t1/2 [2]: 20 min
Kd [4]: 3.34 nM
koff [4]: 0.000511 s⁻¹
kon [4]: 153000 M⁻¹ s⁻¹
t1/2 [4]: 23 min
B4: H4H2346S (antibody, human IgG4, V domains shown)
VH: QVQLVESGGGVVQPGRSLRLSCAASGFSFSDYVMHWVRQAPGKGLEWVASIWFDGSNEFYADSVKGRFTISRDNSKNTLFLQMNSLRAEDTAVYYCAKKGVLVATSAFDIWGQGTMVTVSS
VL: EIVMTQSPSSLSASVGDRVTITCRASQSINNYLNWYHQKPGKAPKLLIYAASSLQSGVPSRFSGSGSGTDYTLTISSLQPEDFGNYYCQQSYRTSMYTFGQGTKVEIK
notes: human IgG4 Fc (H4H)

Kd [3]: 0.0328 nM
koff [3]: 4.14e-05 s⁻¹
kon [3]: 1.26e+06 M⁻¹ s⁻¹
t1/2 [3]: 279 min
Kd [2]: 0.809 nM
koff [2]: 0.000273 s⁻¹
kon [2]: 338000 M⁻¹ s⁻¹
t1/2 [2]: 42 min
Kd [4]: 5.14 nM
koff [4]: 0.000861 s⁻¹
kon [4]: 168000 M⁻¹ s⁻¹
t1/2 [4]: 13 min
B6: H4H2364S (antibody, human IgG4, V domains shown)
VH: EVQLVESGGGLEQPGGSLRLSCAASGFTFSSYVMSWVRQVPGKGLEWVSVISGSGGSTYYADSVKGRFTISRDNSKNTLYLQMNSLRAEDTAVYYCAKPSSYSSSNFHYGMDVWGQGTTVTVSS
VL: DIQMTQSPYSVSASVGDRVTITCRASQGISSWLAWYQQKPGRAPKLLIYAASSLQSGVPSRFSGSGSGTDFTLTISSLQPEDFATYYCQKTNSFPFTFGPGTKVEIK
notes: human IgG4 Fc (H4H)

binding response of second antibody (nm) [1]: 0.01 nm
Kd [2]: 0.382 nM
koff [2]: 0.000748 s⁻¹
kon [2]: 1.96e+06 M⁻¹ s⁻¹
t1/2 [2]: 15 min
B1: H4H2236N3 (antibody, human IgG4, V domains shown)
VH: EVQLLESGGNLVQPGGSLRLSCAASGFTFSSYAMTWVRQAPGKGLEWVSTISGSGTSTYYADSVKGRFTISRDNSRDTVFLQMNSLRAEDTAVYYCSKPSALRFLHWLAMDVWGQGTLVTVSS
VL: DIQMTQSPSSLSAFVGDRVTITCRASQDIRNYLDWFQQKPGKAPKSLIYAASNLQSGVPSRFGGSGSGTDFTLTINSLQPEDFVTYYCQQYNSYPPTFGGGTKVEIK
notes: human IgG4 Fc (H4H)

Kd [3]: 0.0299 nM
koff [3]: 5.13e-05 s⁻¹
kon [3]: 1.71e+06 M⁻¹ s⁻¹
t1/2 [3]: 225 min
Kd [2]: 0.313 nM
koff [2]: 0.000244 s⁻¹
kon [2]: 781000 M⁻¹ s⁻¹
t1/2 [2]: 47 min
Kd [4]: 0.358 nM
koff [4]: 0.000158 s⁻¹
kon [4]: 441000 M⁻¹ s⁻¹
t1/2 [4]: 73 min
B3: H4H2293P (antibody, human IgG4, V domains shown)
VH: QVQLVESGGGVVQPGRSLRLSCAASGFSFSDYVMHWVRQAPGKGLEWVASIWFDGSNELYADSVKGRFTISRDNSKNTLFLQMNSLRAEDTAVYYCAKKGVLVATSAFHIWGQGTMVTVSS
VL: AIQMTQSPSSLSASVGDRVTITCRASQNINNYLNWYHQKPGKAPNLLIYAASSLQSGVPSRFSGSGSGTDYTLTISSLQPEDFGNYYCQQSYSTSMYTFGQGTKLEIK
notes: human IgG4 Fc (H4H)
